Reference: the nanobody polyreactivity screen of Harvey et al. (2022)

assay: yeast display, Sf9 membrane polyspecificity reagent, FACS + sequencing; frameworks hold sequencing errors
Outline: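 Galactose-induced (36–48 hours) yeast carrying a synthetic nanobody display library were exposed to 10% biotinylated, detergent-solubilized Sf9 membrane reagent at 4 °C for 1 hour. FACS followed streptavidin microbead enrichment, using low and high (top ~1%) gates for expression (anti-HA) and reagent binding (streptavidin). Colony PCR, MiSeq 2 × 250 sequencing and CDR-length filtering followed. Labels for polyreactivity reflect the gate of origin.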

Sequence | polyreactivity (PSR sort gate)
QVQLVESVGGLVQAGGSLLLSCAASGRTFTKYAMGWYRLAPGKEGELVAAISRSGTSTYYADSVKGRFTISRDNEKNTVYLQMNSLKPEDTAVYYCATVSAKYHSVHFGYWGQGTQVTVSS | high polyreactivity
QVQRVESGGGIVQAGGSLRLSSAASGSIYLYHAMGWYRPERGKERQLVAAIRSGGITYYADSVKGRFTISRDNAKNTVYLQMYSLKPEDTADYYCAAKFYWKGTPKKYYYWGQGTQETVSS | high polyreactivity
QVQLVESGGGLVQAGGSLRLSCAASGFIFTIYAMGWYRQAPGKERELVAAITWNGGRTYYADSVKGRFTISRDNAKNTVYLQMNSLKPEDTAVYYCAARYGRAYDYWGQGTQVTVSS | high polyreactivity
QVQLVESGGGLVQAGGSLRLSCAASGIIYAANPMGWYRQAPGKERELVAAISKNGGITYYADSVKGRFTISRDNAKNTVYLQMNSLKPEDTAVYYCAARWRQTRRYYYWGQGTQVTVSS | high polyreactivity
QVQLVESGGGLVQAGGSLRLSCGASGGIFYLYAMGWSRQAPGKERELVAAITWSADSTYYADSVKGRFTISRDNAKNTVYLQMNSLKPEDTAVYYCNADVAWQYGKGWSWDIDDYWRQGTQVTVSS | low polyreactivity
QVQLVESGGGLVQAGGSLRLICAASGRIFWQYAMGWYRQAPGKERELVAAISRSGGSTYYADSVKGRFTISRDNAKNTVYLQMNSLKPEDTAVYYCAARKASGVPGSAGRPEYYYWGQGTQVTVSS | high polyreactivity
QVQLVESGGGLVQAGGSLRLSCAASGGTFPWYSMGWYRPATGKEREMVAGITWGGVSTYADSVKGRFTISRDNAKNTVYLQMNSLKQEDTAVYYCASRTSFTRGPWYKFYYWGQGTQVTVSS | high polyreactivity
QVQLVESGGGLVQAGGSLRLSCAASGLTFVRYAMGWYRQAPGKERELVAAISARGGSTYYADSVKGRFTISRDNAKNTVYLQMNSLKPEDTAVYYCNTVRVHGFPIDRIYDYWGQGTQVTVSS | high polyreactivity
QVQLVESGAGLVQAGGSLRLICAASGSTFVKNVMGCYRQAPGKERELVAGITRGGSTYYADSVKGRFTISRDHAKNSVYLQMNSLYPDDTAVYYWAKRYAWELDYWGQGSQVTVSS | high polyreactivity
QVQLVESGGGLVQAGGRLRLSCAASGRIFATNAMGWYRQAPGKERELVATITRSAGRTYYADSVKGRFTISRDNAKNTVYLQMNSLKPEDTAVYYCAADGYSTAVDDTVRYIVEYEFWGQGTQVTVSS | low polyreactivity
QVQLVESVGGLVQVGGSLRLSCAASGSILTDYGMGWYRQAPGKERELVAAITGSGGSTYYADSVKGRFTISRDNAKNTVYLQMNSLKPEDTAVYYCAKRHVGSRYLFDYWGQGTQVTVSS | low polyreactivity
QVQLVESGGGLVQAGGSLRLSCAASGYIFNYAIGWYRQAPRKESELVAAITWDGSSTNYADSVKGRFTISRDNAKNTVYLQMKSLKPEDTAVYYCNARGRWTFNGFWFTYNYWGQGTQVTVSS | high polyreactivity
QVQLVESGGGLVQAGGSLRLSCAASGRTFGYNTMGWYRQAPGKERELVAVITQGVDITYYADSVKGRFTISRDNAKNTVYLQMNSLKPEDTAVYYCNTAGQDAEYDYWGQGTQVTVSS | low polyreactivity
QVQLVESGGGLLQAGGSLRLSCAASGSIFNYSAMGWYRQAPGTERELVATISSGGNTKYADSVKGRFTISRDNAKNTVYLQMNSLKPEDTAVYYCAARWQHSGYRDRYWYDYWGQGTQVTVSS | low polyreactivity
QVHLVESGGGLVQAGGSLRLTCAASGIIFRLYAMGWYRQAPGKEREFVARISKRGGSTYYADSVKGRFTISRDNSKNTVYLQMNSLKPEDTAVYYCAADAPLSYYHDYDYWGQGTQVTVSS | high polyreactivity
QVQLVESGGGLVQAGGSLRLSCAASGRIFGWYAMGWYRQAPGKERELVAAIDGGDDSTYYADSVKGRFTISRDNAKNTVYLQMNSLKPEDTAVYYCAVVGYNWGQGTQVTVSS | low polyreactivity
QVQLVESGGGLVQAGGSLRLSCAASGITFYYYGMGWYRQATGKERELVAAISTGGNTNYADSVKGRFTISRDNAKNTVYLQMNSLKPEDTAVYYCAASFASKYEYWGQGTQVTVSS | high polyreactivity
QVQLVESGGGLVQAGGSLSLSCAASGSILFTNAMGWYRQAPGKERELVAAISSGGSTYYADSVKGRFTISRDNAKNTVYLQMNSLKPEDTAVYYCAASDHYRWYVHRWEDPFYYWGQGTQVTLSS | low polyreactivity
QVQLVESGGGLVHAGGSLRLSCAASGSTFYQNGMGWYRQAHGQERELVAALTGDGGSTYYADSVKGRFTISRDNAKNTVSLHMNSLKPEDTAVYYCAADWTVITDSQFNSGYDYWGQGTQVTVSS | low polyreactivity
QVQLVESGGGLVQAGGSLRLSCAASGSIFYRNTMGWYRQAPGKERELVAAITYSGGSTYYADSVKGRFTISRDNAKNTVYLQMNSLKPEDTAVYYCAVTDFYSYLLRYDSWGQGTQVTVSS | low polyreactivity
QVQHVESGGGLVQAGGSLRLSCAASGRTFRSYAMGWYRQAPGKEREFVATITRRGGSTYYADSVKGRFTISRDNAKNTVYLQMNSLKPEDTAVYYCNAVVSSQEYDYWGQGTQVTVSS | high polyreactivity

Sequence | polyreactivity (PSR sort gate)
QVQLVESGGGLVQAGGSLRLSCAASGRIFGPYTMGWYIQAPGKEREFVAAITRRGGTTYYADSVKGRFTISRDNAKNTVYLQMNSLKAEDTGVYYCDAVGQKRSLGYSWGQGTQVTVSS | low polyreactivity
QVQLVESGGGLVQAGGSLRLSCAASGFIFAIYAMGWYRQAPGKERELVAAINSDGSTYYADSVKGRFTISRDNAKNTVYLQMNSLKPEDTAVYYCNAETAGHDMDYWGQGTQVTVSS | low polyreactivity
QVQLVESGGGLVQAGGCLRLSCAASGSIFGYNAMGWYRHAPGKERELVAAISWRGGSTYYADSVKGRFTISRDNAKNSVYLQMNSLKPEDTAVYYCNTLYPYRHDYAGDYWGQGTQVTVSA | high polyreactivity
QVQLVESGGGLVQAGGSLRLSSAASGRIFTIYAMGWYRQAPGKERELVATISRRGGSTYYADSVKGRFTISRDNAKNTVYLQMNSLKPEDTAGYYCAADSVITWWAYDYWGQGTQVTVSS | high polyreactivity
QVQLVESGGGLVQAGGSLRLSCAASGSIFVSNAMGWYRQAPGKERELVAAITARDVSTYYADSVKGRFTISRDNAKNTVYLQMISLKPEDTAVYYCAGNSSTYPSDDSYVYWGQGTQVTVSS | low polyreactivity
QVQLVESGGGLVQAGGSLRLSCAASGSTFATYVMGWYRQAPGKETELVAAISSSGSTNYADSVKGRFTISRDNAKNTVYLQMNSLKPEYTAVYYCAARYYRLTDRPYNPIVSYGYWGQGTQVTVSS | high polyreactivity
QVQIVESGGGLVQAGGSLRLSCAASGSIFDGNAMGWYRQAPGKERELVAAITWRGTRTYYADSVKGRFTISRDNAKNTVYLQMNSLKPEDTAVYYCAATSYSTYILGGTRRYDYWGQGTLVTVSS | high polyreactivity
QVQLVESGGGLVQAGGSLRLSCAASGITFNLNDMGWYRQAPGKERELVAAITSGGNTSYADSVKGRFTISRDNAKNTVDLQMNSLKPEDTAVYYCATEDFRTDTGMYYWGQGTQVTVSS | low polyreactivity
QVQLVESGGGLVQAGGSLRLSCAASGSTLGYNAMGCYRQAPGKERELVAAIRGGDDDTYYADSVKGRFTISRDNAKNTVYLQMNSMNPEDTAVYYCATGDTSIPYSPPGGYDSWGQGTQVTVSS | low polyreactivity
QVQLQESGGGLVQAGGSLRLSCAASGTISPLPAMGWYRQAPGKEREFVAGIDTGAITNYADSVKGRFTISRDNAKITVYLQMNSLKPEDTAVYYCAVFPAAYDYYERYYTYWGQGTQVTVSS | low polyreactivity
QVQLQESGGGLVKAGGSLRLSCAASGNISPSDAMGWYRQAPGEERDLVASNAYSAITYYADGVKGRYTISRDNAKNTVYLQMNSLKPEDTEVYYCAVYQFTYPVFPAYWGQGTQVTVSS | low polyreactivity
QVQLVESGGGLVQAGGSLRLSCAASGRTFYGYAMGWYRPAPGKERELVAAIDRGGSTDYADSVKGRFTISRDNAKNTVYLQLNSLKTEDTAVYYCAKGYDYYGRRYYYWGQGTQVTVSS | high polyreactivity
QVQLVESGGGLVQAGGSLRLSCAASGFIFFRYAMGWYRQAPGKERELVAAISTRTGITYYSDSVKGRFTISRDNAKNNVYLQMNRLKPEDTAVYDRNVLRSHSLYPFWKYDYWGQGTQVTVSS | high polyreactivity
QVQLVESGGCLVQAGGSLRLSCAASGLIFAEYAMGWYRQAPGKERELVARITSGGSTDYADSVKGRFTISRDNAKNTVFLQMNSLKPEDTAVYYCAAAYAYWGQGTQVTVSS | low polyreactivity
QVQLVESGGGLVQAGGSLRLSCAASGLIFGVYAMGWYRQAPGKESELVAAISKNGDRTYYADSVKGRFTISRDNAKNTVYLQMNCLKPEDTAVYYCAAVWARSTYGPYYYWGQGTQVTVSS | high polyreactivity
QVQLEESGGGLVQAGGSLRLSCAASGSIFQTYAMGWSRQAPGKERQLVAAITSGGGSTYYADSVKGRFTISRDNAKNTVYLQMNSLKREDTAVYYCAAGSRFVSSRLYYWGQGTQVTVSS | high polyreactivity
QVQLVESGGGLVQAGGSLRLSSAASGFILRWYAMGWYRQAPGKERELVAAISWSGGSTYYADSVKGRFTISRDNAKNTVYLQMNSLKPEDTAVYYCNAVNYRNKYDYWGQGTQVTVSS | high polyreactivity
QVQLEESGGGLVQAGGSLRLSCAASGFIFSWYVMGWYRQAPGKERELVAAISQSGGDTYYADSVKGRFTISRDNAKNTVYLQMNSLKPEDTAVYYCAVGRVGRFYYWGQGTQVTVSS | high polyreactivity
QVQLVESGGGLVQAGGSLRLSCAASGRTFYDYAMGWYRQAPGKEREFVARITYSGGGTYYADSVKGRFTISRDNAKHTVYLQMNSLKPEDTAVYYCARPFNRYLGLTRNGYTSDYWGQGTQVTVSS | high polyreactivity
QVQLVESGGGLVQAGGSLRLSCAASGNTFVRNVMGWYRQAPGKERELVAAITWRSVRTYYADSVKGRFTISRDTAKNTVYLQMNSLKPEDTAVYYCAAASASRHGEYDYWGQGTQVTVSS | low polyreactivity
